Experimental data reported in publication PMC2885933 (The EMBO Journal, 2010).

Target: T1, ORF57-6xHis (Kaposi's sarcoma-associated herpesvirus …, UniProt Q2HR75 1-455)
T1 sequence: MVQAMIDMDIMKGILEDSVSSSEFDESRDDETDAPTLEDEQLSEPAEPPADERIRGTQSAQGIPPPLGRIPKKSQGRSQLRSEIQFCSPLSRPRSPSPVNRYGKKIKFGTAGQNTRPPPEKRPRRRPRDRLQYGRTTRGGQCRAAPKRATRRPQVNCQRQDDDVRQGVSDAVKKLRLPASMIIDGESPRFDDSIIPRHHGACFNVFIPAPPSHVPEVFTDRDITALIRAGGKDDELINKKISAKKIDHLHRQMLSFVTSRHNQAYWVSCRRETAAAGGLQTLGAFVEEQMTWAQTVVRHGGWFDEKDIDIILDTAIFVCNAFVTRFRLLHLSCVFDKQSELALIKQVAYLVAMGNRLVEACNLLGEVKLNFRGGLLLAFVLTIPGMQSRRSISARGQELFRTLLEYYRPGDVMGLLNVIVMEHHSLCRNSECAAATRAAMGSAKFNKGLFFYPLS
Assay: pull-down

B1: GST-PYM (natural protein)
chain: not shown
**Q.** Does B1 bind?
**A.** binds
